B1: TPR 5TU (parent)
chain: GGAUCUUCUCGAUCUAACAAAAAAGACAAAUCUGCCACAAAGCUUGAGAGCAUCUUCGGAUGCAGAGGCGGCAGCCUUCGGUGGCGCGAUAGCGCCAACGUUCUCAACUAUGACACGCAAAACGCGUGCUCCGUUGAAUGGAGUUUAUCAUG

Variants at the floor of the assay were thinned out.

Variants of B1 are the subject of the series. Description: polymerase ribozyme fitness, log enrichment relative to wild type (log ratio); higher = more active; in vitro selection for triplet polymerase activity. The method, boiled down:
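Fitness measures genotype enrichment against wild-type enrichment on a logarithmic scale, with inverse-variance-weighted averaging of replicates. The logarithm is base 2, and genotypes were kept only with ≥10 input reads and ≥1 read per output in Illumina sequencing. The sequenced libraries came from one triplicate in vitro selection round, including frozen incubation at −7 °C, of PCR-built, transcribed mutant libraries of each subunit of a heterodimeric triplet polymerase ribozyme.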
GGAUCUUCUCGAUCUAACAAAAAAGACAAAUCUGCCACAAAGCUUGAGAGCAUUAUCGGAUGCAGAGGCGGCAGCCUUCGGUGGCACGAUAGCGCCAACGUUCUCAACUAUGACAGGCAAAACGCGUGCUCCGUUGAAUGGAGUUUAUCAUG [C54U U55A G86A C116G]: the “polymerase ribozyme fitness (log ratio)” value was -2.2.
Then GGAUCUUUUCGAUCUAACAAAAAAGUCAAAUCUGCCACAAAGCAUGAGAGCAUCUUCGGAUGCAGAGGCGGCAGCCUUCGGUGGUGCGAUAGCGCCAACGUUCUCAACUAUGACUCGAAAAACGCGUGCUCCUUUGAAUGGAGUUUAUCAUG [C8U A26U U44A C85U A115U C118A G133U], with ≤ -4.2; and GGAUCUUCUCGAUCUAACAAAAAAGACAAAUCUGCCACAAAGCUUGAGAGCAUCUUCGGAUGCAGAGGCGGCAGCCUUCGGUGGCGCGAUAGCGCCAACGUUCUCAACUAUGACACGCAAAACGCGUGCUCCGUUGAAUGGAGUUCAUCAGG [U146C U151G], with ≤ -4.2; and GGAUCUUCUCGAUCUAACAAAAAAGACAAAUCUGCCACAAAGCUUGAGAGCAUCUUCGGAUGCAGAGGCGGCAGCCUUCGGUGGCGCGAUAGCUCCAACGUUCUCAACUAUGACACGCAAAACGCGUGCUCCGUUGAAUGGAGUUUAUCAUG [G94U], with 1.12.
Then GGAUCUUCUCGAUCUAACAAAAAAGACAAAUCUGCCCCAAUGCUUGAGAGCAUCUUCGGAUGCAGAGGCGGCAGCCUUCGGUGGCGCGAUAGUGCCAACGUUCUCAACUAUGACACGAAAAACGCGUGCUCCGUUGAAUGGAGUUUAUCAUG [A37C A41U C93U C118A], with -2.93.
Then GGAUCUUCUCUAUCUAACAAAAAAGACAAAUCUGCCACAUAGCUUGAGAGCAUCUUCGGAUGCAGAGGCGGCAGCCUUCGGUGACGCGAUAGCGCCAACGUUCUCAACUGUGACACGCAAAACGCGUGCUCCGUUGAAUGGAGUUUAUCAUG [G11U A40U G84A A110G], with -3.56.
In the case of GGAUCUUCUCGAUCUAAUAAAAAAGACAAAUCUGCCACAAAGCUUGAGAGCAUCUUCGGAUGCAGAGGCGGCAGCAUUCGGUGGCGCGAUAGCGCCAACGUUCUCAACUAUGACACGCAAAACGCGGGCUCCGUUGCAUGGAGUUUAUCAUG [C18U C76A U127G A137C], the “polymerase ribozyme fitness (log ratio)” value is ≤ -4.2.
Next, GGAUCUUCUCGAUCUAACAAAAAAGACAAAGCUGCCACAAAGCUUGAGAGCAUCUUCGUAUGCAGAGGCGGCAGCCUUCGGUGGCGCGAUAGCGCCAACGUUCUCAACUAUGACACGCAAAACGCGUGCUCCGUUGAUUGGAGUUUAUCAUG [U31G G59U A138U]: ≤ -4.2.
Then GGAUCUUCUCGAUCUAACAAAAAAGACAAAUCUGCCACAAAGCUUGAGAGCAUUUUCGGAUGCAGAGGCGGCAGCCUUCGGUGGCGCGAUAGCGCCAACGUUAUCAACUAUGACACGCAAAACGCGUGCUCCGUUGAAUGGAGUUUAUCAUG [C54U C103A], with -2.22.
As for GGAUCUUCUCGAUCUAACAAAAAAGACAAAUCUGCCGCAAAGCUUGAGAGCAUCUUCGGAUGCAGAGGGGGCAGCCUUCGGUGGCGCGAUAGCGCCAACGUUCUCAACUAUGACACGCAAAACGCGUGCUCCGUUGAAUGGAGUUUAUCAUG [A37G C69G], the “polymerase ribozyme fitness (log ratio)” value was -0.726.
Next, GGAUCUUCUCGAUCUAAGAAAAAAGACAAAUCUGCCACAAAGCUUGAGAGCGUCUUCGGAUGCAGAGGCGGCAGCCUUCGGUGGCGUGAUAGCGCCAACGUUCUCAACUAUGACACGCAAAACGCGUGCUCCGUUGAAUGGAGUUUAUCAUG [C18G A52G C87U]: -1.15; GGAUCUUCUCGAUCUGAAAAAAAAGGCAAAUCUGCCAUAAACCUUGAGAGCAUCUUCGGAUGCAGAGGCGGCAGCCUUCGAUGGCGAGAUAGCGCCAACGUUCUCAACUAUGACAAGCAAAACGCGUGCUCCGUUGAAUGGAGUUUAUCAUG [A16G C18A A26G C38U G42C G81A C87A C116A]: ≤ -4.2.
Then GGAUCUUCUCGAUCUAACAAUAAAGACAAAUCUGCCACAAAGCUUGAGAGCAUCUUCGGAUGCAGAGGCGGCAGCCUUCGGGGGCGCGAUAGGGCCAACGUUCUCAACUAUGACACGCAAAACGCGUGCUCCGUUGAAUGGAGUUUAUCAUG [A21U U82G C93G], with -3.69; and GGAUCUUCUCGAUCUAACAAAAAAGACAAAUCUGCCACAAAGCUUGAGAGCAUCUUGGGAUGCAGAGGCGGCAGCCUUCGGCGGCGCGAUAGAGUCAACGUUCUCAACUAUGACAUGCAAAACGCGUGCUCCGUUGAAUGGAGUUUAUCAUG [C57G U82C C93A C95U C116U], with -3.34; and GGAUCUUCUCGAUCUAACAAAAAAGACAAACCUGCCACAAAGCUAGAGAGCAUCUUCGGAUGCAGAGGCGGCAGCCUUCGGUGGCGCGAUAGCGCCUACGUUCUCAACUAUGACACACAAAACGCGUGCUCCGUUGAAUGGAGUUUAUCAUG [U31C U45A A97U G117A], with -4.09.
In the case of GGAUCUUCUCGAUCUAACAAAAAAGUCAAAUCUGCCACAAAGCUUGAGAGCAUCUUCGGAUGCAGAGGCGGCAGCCUUCGGUGGCGCGCUAGCGUCAACGUUCACAGCUAUGACACGCAAAACGCGUGCUCCGUUGAAUGGAGUUUAUCAUG [A26U A89C C95U U104A A107G], the “polymerase ribozyme fitness (log ratio)” value was ≤ -4.2.
As for GGAUCUUCUCAAUCUAACAAAAUAGACAAAUCUGCCACAAAGCUUGAGAGCAUCUUCGGAUGCAGCGGCGGCAGCCUUCGGUGGCGCGAUAACGCCAACGUUCUCAACUAUGAUACGCAAAACGAGUGCUCCGUUGAAUGGAGUUUAUCAUG [G11A A23U A66C G92A C114U C125A], the “polymerase ribozyme fitness (log ratio)” value was ≤ -4.2.
Take GGAUCUUCUCGUUCUAACAAAAAAGACAAAUCAGGCACAAAGCUUGAGAGCAUCUUAGGAUGCAGAGGCGGCAGCCCUCGGUGGCGCGAUAGCGCCAACGCUCUCAACUAUGACACGCAAAACGCGUGCUCCGAUGAAUGGAGUUUAUCAUG [A12U U33A C35G C57A U77C U101C U134A]: the “polymerase ribozyme fitness (log ratio)” value was ≤ -4.2.
As to GGAUCUUCUCGAUCUAACAAAAAAGACAAAUCUGCCACAAAGCUUGAGAGCAUCUUCGGAUGCAGAGGCGGCAGCCGUCGGUGGCGCGCUAGCGCCAACGUUCCCAACUAUGACACGCAAAACGCGUGCUCCGUUGAAUGGAGUUUAUCAUG [U77G A89C U104C], the “polymerase ribozyme fitness (log ratio)” value was ≤ -4.2.

Values taken from the RNAGym collection of RNA variant scans (doi:10.1073/pnas.2313332121).
